B1: Hairpin Ribozyme (parent)
chain: GUCCUCUUUCACGUGCGCGUGAAAGAGAGAAGUGAACCAGAGAAACACACGUUGUGGUAUAUUACCUGGUA

Variants of B1 are the subject of the data set. As to the kind of experiment: self-cleavage, relative activity (ratio to wild type); higher = more cleavage; co-transcriptional.
As to C50U U63C, the self-cleavage amounted to 0.217.
Consider U62G A64U, for which the self-cleavage was found to be 0.0808.
For C12A C50U, the self-cleavage turned out to be 0.399.
As for C10A G32A, the self-cleavage is 0.161.
The value for A44G A45C was 0.252.
The value for U9A U62A was 0.174.
The value for G51C G56C was 0.065; that for U5C A22G was 0.63.
Take U14C U53C: the self-cleavage turned out to be 0.675.
The value for U14C U53G was 0.936.
The value for U5G A49C was 0.205; that for C16G A24G was 0.568; that for G27C A35G was 0.181.
The value for G15U G19C was 1.
Regarding A43U U58G, the self-cleavage was 0.0898.
The value for U2G U5C was 0.271; that for U2G U5A was 0.288.
For the variant U7A U53C, the self-cleavage was determined as 1.07.
The value for G1C C4G was 0.301.
The value for G17U G56U was 0.112.
For G1A G13U, the self-cleavage was found to be 0.208.
The value for C38U A71C was 0.889; that for G32C C48A was 0.112.
The value for G1U G27U was 0.199.
The value for A43C U52A was 0.136; that for C38U A44C was 0.0457.
G29C U55A: the self-cleavage amounted to 0.164.
The value for C37A A64C was 0.144.
The value for U7C U62C was 0.196.
The value for C12U C65U was 0.348.
On to A30G C66U, for which the self-cleavage worked out at 0.1.
The value for G13A C18G was 0.761.
The value for U52C U70G was 0.988; that for A35G C66A was 0.156; that for U14G C38G was 0.119.
The value for A23C G27C was 0.187; that for C6G G68U was 0.156.
In the case of C6G G68C, the self-cleavage is 0.131.
The value for C46U U67G was 0.171; that for A44G G51C was 0.238; that for U63A C65A was 0.219.
The value for G15U A36U was 0.606.
As for U33A A64U, the self-cleavage is 0.21.
In the case of U2G A11G, the self-cleavage amounted to 0.306.
The value for G1C G34C was 0.211.
The value for G19C A31U was 0.0995.
The value for G34C C38G was 0.683.
As to G34U C50A, the self-cleavage is 1.13.
Regarding G13C U20A, the self-cleavage is 0.492.
The value for C4G A41C was 0.236; that for U5G C38U was 0.195.
The value for A41C G42U was 0.231; that for C4A A26C was 0.13.
Regarding C12U A24C, the self-cleavage was found to be 0.721.
The value for G13C G19U was 0.752; that for G17A G68C was 0.232; that for A11U A64G was 0.588.
Take G21A A47G: the self-cleavage was found to be 0.2.
On to A24C A44U, for which the self-cleavage was determined as 0.17.
The value for A49U U58C was 0.28.
In the case of G1U G40A, the self-cleavage was found to be 0.123.
The value for C50A U58A was 0.183.
Regarding C38G A59U, the self-cleavage is 0.125.
The value for G1C C37G was 0.0832; that for A61U C66A was 0.122.
Take G51U G69A: the self-cleavage was 0.457.
The value for A35C A47G was 0.195; that for G15U A22G was 1.12; that for C6A C48G was 0.121.
The value for A31C U53A was 0.126; that for A43G A49G was 0.0811.
The value for C6A A43G was 0.223; that for G25A U70G was 0.509; that for G25C A35C was 0.474.
Consider U2A C66U, for which the self-cleavage was 0.127.
The value for U2C A31G was 0; that for A43G C50U was 0.198; that for A41C G56A was 0.155.
The value for A11G A61U was 0.136; that for C4A G54A was 0.184; that for A36U A44C was 0.112.
Take U20A G57A: the self-cleavage stood at 0.204.
The value for U14G C18G was 0.694.
The value for A36C C48A was 0.142.
The value for G17C U20G was 0.904.
Consider C16U G57U, for which the self-cleavage came out at 0.266.
Regarding A45G C50G, the self-cleavage worked out at 0.109.
In the case of A41G A47U, the self-cleavage was 0.212.
On to C10G A41G, for which the self-cleavage was found to be 0.734.
The value for A26C U62C was 0.213.
The value for U5A A61U was 0.185; that for G29C C38G was 0.122.
In the case of U33C C50U, the self-cleavage is 0.0772.
The value for U58A U62G was 0.296.
The value for A61G A71G was 0.168; that for C4A G42C was 0.132.
The value for U9G A47C was 0.406; that for U9G A47U was 0.0873; that for G68C A71C was 0.436.
For the variant A31U U67G, the self-cleavage was 0.0559.
Turning to G29U A41U, the self-cleavage worked out at 0.116.
With U53C U70A, the self-cleavage was 1.09.
The value for U14A G68C was 0.25.
In the case of G19C G34C, the self-cleavage amounted to 1.31.
Turning to U62C U67A, the self-cleavage was 0.166.
The value for A23C G25A was 0.235; that for U5G U9C was 0.197; that for A11C U20C was 1.02.
The value for A30U U55A was 0.0256.
The value for A24U A28U was 0.521; that for U62G C65G was 0.223; that for G29U C66G was 0.233.
For the variant G21U C46U, the self-cleavage was 0.128.
The value for A11U A28G was 0.929; that for U7A U14C was 0.772.
The value for U14C G19A was 0.612.
Consider G42A G57C, for which the self-cleavage stood at 0.0908.
For the variant A31U U62A, the self-cleavage turned out to be 0.115.
The value for G21C U63A was 0.0855; that for U8G A45G was 0.125.
The value for C3G A23U was 0.28; that for G15A C46G was 0.0897.
The value for A30C A39C was 0.12.
With U8A G69C, the self-cleavage was 0.191.
The value for G25U A26U was 0.542; that for G27C G57C was 0.0926.
In the case of C18G G54C, the self-cleavage was determined as 0.471.
Regarding G57C U62G, the self-cleavage stood at 0.155.
For the variant U2A C16U, the self-cleavage was 0.259.
The value for C12U G42U was 0.355.
The value for C4U G15A was 0.33; that for C37A C66G was 0.105; that for U33G G34A was 0.317.
The value for U20A U33C was 0.186.
On to G27U U67G, for which the self-cleavage amounted to 0.111.
With U8C U67G, the self-cleavage was determined as 0.226.
The value for G13C A39G was 0.186; that for A35U G42A was 0.181; that for U53A A59C was 0.0694.
U7A A26U: the self-cleavage came to 0.202.
The value for A39U G57U was 0.123; that for A11U A61G was 0.176; that for U9C U20A was 0.692.
The value for U9A G51C was 0.673.
For the variant U55A A71G, the self-cleavage was found to be 0.14.
Consider C3G A49U, for which the self-cleavage came to 0.188.
The value for C6U G68A was 0.209; that for C3A A31U was 0.155.
The value for C6U A35C was 0.896; that for G19A C38U was 0.508; that for U9G U62C was 0.323.
The value for G1C A31G was 0.187; that for G21U G57A was 0.148.
For the variant U2G U52C, the self-cleavage amounted to 0.346.
Regarding G32U A71G, the self-cleavage was determined as 0.214.
The value for U8C U9C was 0.275; that for A47C G57A was 0.225.
The value for G15A A24U was 0.688; that for C10U A71U was 0.706.
The value for U20C A23U was 0.667; that for G13C G27U was 0.19; that for G27A G42U was 0.147.
As to C3U G40C, the self-cleavage amounted to 0.0768.
The value for C6U G40U was 0.166.
In the case of A43U U63A, the self-cleavage is 0.107.
The value for A41U A71C was 1.58; that for C37G A39U was 0.0635.

The values above are taken from the RNAGym collection of RNA variant scans (doi:10.7554/elife.80360).
